Assay results from the supplement of paper PMC9112550, “Optimization of the antimicrobial peptide Bac7 by deep mutational scanning” (BMC Biology, 2022).

System: Escherichia coli TOP10
Experiment: shrunken log2 fold change of peptide-encoding DNA abundance (4.5 h post-induction vs induction); higher = less antimicrobial activity (less host growth inhibition)
Details: time post-induction: 4.5 h; library: site-saturation at positions 5, 18, 19, 20
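Further: peptides expressed intracellularly from a pBAD plasmid library in pooled LB shake-flask culture, induced with 0.3% L-arabinose, DNA abundance read by NGS, three biological replicates, DESeq2 with apeglm shrinkage.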

| Sequence | shrunken log2 fold change |
| --- | --- |
| RRIRGRPPRLPRPRPRPGWIPRP | 0.117 |
| RRIRMRPPRLPRPRPRPDNGPRP | -0.0901 |
| RRIRNRPPRLPRPRPRPYVWPRP | -0.135 |
| RRIRIRPPRLPRPRPRPSEWPRP | 0.151 |
| RRIRYRPPRLPRPRPRPTQDPRP | 0.542 |
| RRIRIRPPRLPRPRPRPDGQPRP | -0.0297 |
| RRIRLRPPRLPRPRPRPTVAPRP | 0.0307 |
| RRIRIRPPRLPRPRPRPFTRPRP | 0.114 |
| RRIRTRPPRLPRPRPRPCQPPRP | -0.387 |
| RRIRNRPPRLPRPRPRPCAGPRP | -0.123 |
| RRIRWRPPRLPRPRPRPGSAPRP | 0.432 |
| RRIRDRPPRLPRPRPRPQIAPRP | 0.0211 |
| RRIRERPPRLPRPRPRPWMTPRP | -0.108 |
| RRIRMRPPRLPRPRPRPQGKPRP | -0.0118 |
| RRIRLRPPRLPRPRPRPFPFPRP | -0.254 |
| RRIRWRPPRLPRPRPRPCFLPRP | -0.462 |
| RRIRQRPPRLPRPRPRPGPSPRP | 0.242 |
| RRIRFRPPRLPRPRPRPGKMPRP | -0.0519 |
| RRIRTRPPRLPRPRPRPVTAPRP | -0.0612 |
| RRIRFRPPRLPRPRPRPQPWPRP | 0.334 |
| RRIRMRPPRLPRPRPRPTNEPRP | 0.282 |
| RRIRGRPPRLPRPRPRPWYQPRP | 0.0417 |
| RRIRIRPPRLPRPRPRPFLVPRP | -0.759 |

| Sequence | shrunken log2 fold change |
| --- | --- |
| RRIRQRPPRLPRPRPRPWWVPRP | -0.0321 |
| RRIRARPPRLPRPRPRPKWCPRP | 0.321 |
| RRIRRRPPRLPRPRPRPITGPRP | 0.111 |
| RRIRIRPPRLPRPRPRPHTRPRP | -0.35 |
| RRIRTRPPRLPRPRPRPKTHPRP | 0.29 |
| RRIRPRPPRLPRPRPRPVKWPRP | 0.00231 |
| RRIRLRPPRLPRPRPRPGLNPRP | 0.15 |
| RRIRVRPPRLPRPRPRPTHAPRP | 0.285 |
| RRIRIRPPRLPRPRPRPCNHPRP | -0.232 |
| RRIRGRPPRLPRPRPRPWMCPRP | -0.13 |
| RRIRERPPRLPRPRPRPQKYPRP | -1.15 |
| RRIRARPPRLPRPRPRPCSEPRP | 0.244 |
| RRIRGRPPRLPRPRPRPRAQPRP | 0.778 |
| RRIRCRPPRLPRPRPRPIHIPRP | -0.893 |
| RRIRFRPPRLPRPRPRPQWGPRP | -0.139 |
| RRIRHRPPRLPRPRPRPQWEPRP | -0.0718 |
| RRIRIRPPRLPRPRPRPMVDPRP | -0.0165 |
| RRIRYRPPRLPRPRPRPNCHPRP | -0.507 |
| RRIRCRPPRLPRPRPRPTKDPRP | -0.489 |
| RRIRNRPPRLPRPRPRPSFNPRP | -0.143 |
| RRIRMRPPRLPRPRPRPIEEPRP | 0.278 |
| RRIRGRPPRLPRPRPRPYTAPRP | -0.455 |
| RRIRLRPPRLPRPRPRPMHAPRP | 0.12 |

| Sequence | shrunken log2 fold change |
| --- | --- |
| RRIRFRPPRLPRPRPRPDFPPRP | -0.0311 |
| RRIRRRPPRLPRPRPRPVVGPRP | 0.487 |
| RRIRYRPPRLPRPRPRPAPCPRP | -0.0799 |
| RRIRTRPPRLPRPRPRPEWQPRP | 0.495 |
| RRIRIRPPRLPRPRPRPFRQPRP | 0.0326 |
| RRIRIRPPRLPRPRPRPYHGPRP | -0.0135 |
| RRIRNRPPRLPRPRPRPYWCPRP | -0.00264 |
| RRIRKRPPRLPRPRPRPMEEPRP | 0.371 |
| RRIRVRPPRLPRPRPRPTEEPRP | 0.0849 |
| RRIRFRPPRLPRPRPRPELHPRP | -0.235 |
| RRIRKRPPRLPRPRPRPGPCPRP | 0.393 |
| RRIRWRPPRLPRPRPRPTIQPRP | 0.0488 |
| RRIRYRPPRLPRPRPRPMCQPRP | -0.394 |
| RRIRYRPPRLPRPRPRPTAHPRP | -0.466 |
| RRIRMRPPRLPRPRPRPLPDPRP | 2.49 |
| RRIRPRPPRLPRPRPRPWLGPRP | 0.256 |
| RRIRSRPPRLPRPRPRPTFEPRP | 0.0262 |
| RRIRLRPPRLPRPRPRPNMPPRP | -0.265 |
| RRIRYRPPRLPRPRPRPELMPRP | -0.128 |
| RRIRRRPPRLPRPRPRPWNCPRP | 0.0332 |
| RRIRLRPPRLPRPRPRPGLFPRP | 0.157 |
| RRIRIRPPRLPRPRPRPERGPRP | 0.183 |
| RRIRSRPPRLPRPRPRPVNQPRP | -0.155 |

| Sequence | shrunken log2 fold change |
| --- | --- |
| RRIRMRPPRLPRPRPRPKGGPRP | 0.115 |
| RRIRERPPRLPRPRPRPWKYPRP | -0.0185 |
| RRIRLRPPRLPRPRPRPEHPPRP | -0.00635 |
| RRIRNRPPRLPRPRPRPLDNPRP | -0.263 |
| RRIRKRPPRLPRPRPRPVNQPRP | -0.145 |
| RRIRKRPPRLPRPRPRPIEQPRP | -0.0195 |
| RRIRPRPPRLPRPRPRPTFVPRP | 0.012 |
| RRIRFRPPRLPRPRPRPNHCPRP | -0.0425 |
| RRIRDRPPRLPRPRPRPHRGPRP | -0.0201 |
| RRIRSRPPRLPRPRPRPAANPRP | 0.403 |
| RRIRYRPPRLPRPRPRPSKYPRP | -0.401 |
| RRIRGRPPRLPRPRPRPKIRPRP | 0.118 |
| RRIRRRPPRLPRPRPRPHDPPRP | -0.0379 |
| RRIRCRPPRLPRPRPRPAAAPRP | 0.528 |
| RRIRSRPPRLPRPRPRPPFWPRP | 0.837 |
| RRIRGRPPRLPRPRPRPSFIPRP | -0.166 |
| RRIRDRPPRLPRPRPRPYKQPRP | -0.0404 |
| RRIRRRPPRLPRPRPRPACRPRP | 0.456 |
| RRIRIRPPRLPRPRPRPINEPRP | -0.516 |
| RRIRCRPPRLPRPRPRPNLAPRP | -0.122 |
| RRIRFRPPRLPRPRPRPAPYPRP | 1.75 |
| RRIRIRPPRLPRPRPRPYWDPRP | -0.143 |
